Article PMC9348671, “Structural elucidation of substrate-bound aminoglycoside acetyltransferase (3)-IIIa” (PLoS ONE, 2022)

Target: the molecule itself
Experiment: SEC; HiLoad Superdex 200 26/60 in 20 mM Tris pH 7.5, 150 mM NaCl; tag removed

B1: aminoglycoside acetyltransferase (3)-IIIa (enzyme)
chain: MTDLNIPHTHAHLVDAFQALGIRAGQALMLHASVKAVGAVMGGPNVILQALMDALTPDGTLMMYAGWQDIPDFIDSLPDALKAVYLEQHPPFDPATARAVRENSVLAEFLRTWPCVHRSANPEASMVAVGRQAALLTANHALDYGYGVESPLAKLVAIEGYVLMLGAPLDTITLLHHAEYLAKMRHKNVVRYPCPILRDGRKVWVTVEDYDTGDPHDDYSFEQIARDYVAQGGGTRGKVGDADAYLFAAQDLTRFAVQWLESRFGDSASYG
notes: AAC(3)-IIIa from Pseudomonas aeruginosa, GenBank CAA39184.1; gene synthesized with codons optimized for E. coli, in pET15b between NdeI and BamHI; Hexahistidine tag removed by thrombin; residues of the thrombin site and vector may be left at the N-terminus; Crystals held CoASH and an aminoglycoside (gentamicin, sisomicin or neomycin); also called AAC(3)-IIIa; iso^A; source: LOBSTR E. coli, …
stoichiometry N: 2
